US20230303690A1 (published 2023)
One block for each binder: values may come before it.

Molecular target: T1, human LAG3 expressed on cells (human, UniProt P18627 23-525)
T1 construct: whole, on cells
T1 sequence (looked up): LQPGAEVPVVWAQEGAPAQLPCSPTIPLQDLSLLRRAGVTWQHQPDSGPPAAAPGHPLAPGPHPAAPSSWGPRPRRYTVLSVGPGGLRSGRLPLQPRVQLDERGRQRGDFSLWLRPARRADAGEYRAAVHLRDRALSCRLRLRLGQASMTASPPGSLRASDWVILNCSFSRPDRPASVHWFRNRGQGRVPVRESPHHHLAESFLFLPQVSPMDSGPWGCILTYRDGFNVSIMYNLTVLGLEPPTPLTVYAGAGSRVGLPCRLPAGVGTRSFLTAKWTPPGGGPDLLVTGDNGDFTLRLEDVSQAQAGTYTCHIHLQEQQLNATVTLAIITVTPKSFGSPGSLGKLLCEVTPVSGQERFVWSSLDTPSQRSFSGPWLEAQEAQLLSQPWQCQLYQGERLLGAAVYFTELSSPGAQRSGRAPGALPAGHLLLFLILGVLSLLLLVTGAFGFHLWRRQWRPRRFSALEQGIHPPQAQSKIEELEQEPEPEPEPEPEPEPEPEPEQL
Experiment: cell ELISA, 293T-hLAG3 cells
Experimental: Each well was treated with stimulants. The cells were then fixed and blocked with Blocking buffer. The Primary antibodies were added. The wells were washed and a HRP-conjugated secondary antibody was added. The wells were washed with 1x PBS and a solution containing TMB (Biopanda, TMB-S-004) was added. The TMB reacted with HRP to change the color thereof from colorless to blue. An acid stop solution (Solarbio, C1058) was then added to stop the reaction and change the blue color to yellow.
Materials are listed below: [0072] […] 2) Blocking buffer: 1×PBS+3% BSA (Sigma, B2064); [0074] […] [0075] 4) Secondary antibody: Goat anti-human IgG1 Fc antibody, HRP (1:2500, invitrogen, A18817). [0076]

EC50: 1.18 nM | OD450 at 0.0045725 ug/ml: 0.097 | OD450 at 0.0137174 ug/ml: 0.198 | OD450 at 0.0411523 ug/ml: 0.408 | OD450 at 0.1234568 ug/ml: 0.79 | OD450 at 0.3703704 ug/ml: 1.13 | OD450 at 1.111111 ug/ml: 1.28 | OD450 at 3.333333 ug/ml: 1.21 | OD450 at 10 ug/ml: 1.26
B1: sdAb No. 27 (VHH)
VHH: QVQLVESGGGLVQPGGSLRLSCAASGFTLDYYAIGWFRQAPGKEREGVSCIRSSDGSTYYADSVKGRFTISSDNTKNTVYLQMNSLKPEDTAVYYCATDRYSDCRGPYENWGQGTQVTVSS
notes: Fc of the tested form not described; also called sdAb 27; not shown: Fc part implied by anti-human Fc capture and anti-human IgG Fc detection

EC50: 0.904 nM | OD450 at 0.0045725 ug/ml: 0.104 | OD450 at 0.0137174 ug/ml: 0.259 | OD450 at 0.0411523 ug/ml: 0.543 | OD450 at 0.1234568 ug/ml: 1.01 | OD450 at 0.3703704 ug/ml: 1.3 | OD450 at 1.111111 ug/ml: 1.42 | OD450 at 3.333333 ug/ml: 1.44 | OD450 at 10 ug/ml: 1.48
B2: sdAb No. 17 (VHH)
VHH: QLQLVESGGGLVQPGGSLRLSCAASGLTLDGYAIGWFRQAPGKEREGLACISGSDGSTHYLDSVKGRFTISRDNGKNTMALQMNSLQFGDTAIYYCAARRGSCSGSWTYWGQGTQVTVSS
notes: Fc of the tested form not described; also called sdAb 17; not shown: Fc part implied by anti-human Fc capture and anti-human IgG1 Fc detection
